Test results from publication PMC4612432 (The journal of physical chemistry. B, 2013).

T1: Wild-type human lysozyme (human) (UniProt P61626)
T1 sequence: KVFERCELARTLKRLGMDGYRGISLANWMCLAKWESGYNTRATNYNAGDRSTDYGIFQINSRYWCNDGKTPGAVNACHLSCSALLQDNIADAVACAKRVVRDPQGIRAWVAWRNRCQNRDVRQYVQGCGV


Tests used:
[1] = target: T1, Wild-type human lysozyme (human); assay: SPR
[2] = target: T1, Wild-type human lysozyme (human); assay: ITC
Wild-type human lysozyme = Wild-type human lysozyme (Homo sapiens, UniProt P61626); assay: SPR

| Kd [1] [nM] | koff [1] [s⁻¹] | kon [1] [M⁻¹ s⁻¹] | Kd [2] [nM] | Kd (Wild-type human lysozyme) [nM] | koff (Wild-type human lysozyme) [s⁻¹] | kon (Wild-type human lysozyme) [M⁻¹ s⁻¹] | Binder |
| --- | --- | --- | --- | --- | --- | --- | --- |
| 310 | 0.128 | 410000 | 2500 |  |  |  | cAb-HuL5G (VHH) VHH: QVQLQESGGGSVQAGGSLRLSCSASGLSTTVMAWFRQAPGKEREGVAAIYTGDGFPYYADSVKGRFTISQDNAKNTVYLQMNSLKPEDTAMYYCAAKTGAFSYGSLWWMSRAYNHWGQGTEVTVSS |
|  |  |  |  | 460 | 0.088 ± 0.009 | 190000 | cAb-HuL5 (VHH) VHH: QVQLQESGGGSVQAGGSLRLSCEASGLSTTVMAWFRQAPGKEREGVAAIYTGDGFPYYADSVKGRFTISQDNAKNRMYLQMNSLEPEDTAMYYCAAKTGAFSYGSLWWMSRAYNHWGQGTQVTVSS |
